System: S. uberis, S. aureus, S. agalactiae and S. dysgalactiae
Test: 2 h time killing assay in PBS and UHT-milk, relative in vitro scoring
Format: cell-based
Details: 0.25 μM
Method: Concerning the time killing assay, an overnight bacterial culture was diluted 1:10 for S. uberis, S. agalactiae-& dysgalactiae or 1:100 for S. aureus in PBS or UHT-pasteurized whole cow's milk. A volume of 10 μL thereof was combined with an equal amount of chimeric endolysin in PBS (or only PBS as negative control) in triplicate and incubated in a covered 96-well microtiter plate at 37° C. for 2 h. […] Finally, these fractions were serially diluted 1:10 in PBS. 5 μL of each fraction was spotted on TSA or BHI-agar and incubated overnight at 37° C. The following day, colony forming units (CFU) were counted and converted to CFU/mL to calculate logarithmic reductions in comparison with the negative control. The relative scores were calculated by dividing the observed logarithmic reduction for each endolysin by the maximal reduction observed for that specific condition and strain. Next, this value was divided by the number of conditions and strains tested (i.e., 8=4 bacterial strains×2 conditions (PBS/UHT-milk)). As such, the best performing candidate in each individual assay received a score of 0.125 (=(1/1)/8). […] Turbidity reduction assays were performed by combining 100 μL of overnight grown bacterial cells with an equal volume of purified enzyme at the desired concentration. Bacterial cells were washed with PBS and resuspended in a 1:1 ratio with enzyme to an OD600 of approximately 1.0. Next, the OD600 was measured using a Tecan infinite 200 PRO plate reader (Tecan, Switzerland) every 15 seconds at 37° C., shaking the 96-well plate between each measurement.
Stationary phase S. uberis 0140J or S. aureus N305 and one randomly chosen clinical isolate of S. uberis, S. aureus, S. agalactiae and S. dysgalactiae were challenged with a final concentration of 0.25 μM endolysin in a 2 h time killing assay (TKA) in both phosphate buffered saline (PBS) and ultra-high temperature pasteurized whole cow's milk (UHT-milk).

B1: NC3: chimeric endolysin SEQ ID NO: 15; CPP + PlySs2 CHAP + Ply1081 CW_7 + PlySs9 amidase_3 (protein)
chain: MGFGCNGPWNEDDLRCRNHCKSIKGYKGGYCAKGGFVCKCYGATTVNEALNNVRAQVGSGVSVGNGECYALASWYERMISPDATVGLGAGVGWVSGAIGDTISAKNIGSSYNWQANGWTVSTSGPFKAGQIVTLGATPGNPYGHVVIVEAVDGDRLTILEQNYGGKRYPVRNYYSAASYRQQVVHYITPPGTVAQSAPNLAGAGIDQLVQETLAGKYGNGEQRKAALGSQYQAVMAVINGKATAPKKTVDQLAQEVIQGKHGNGEDRKKSLGPDYDAVQKRVTEILKGSPSGNIPKTPSDAPKSEVVNSSTEPKTEETGANGKATDTKITKGSGKHLVICGHGQGRTGYDPGAVNAKLGITEAGKVRELSKLMSKYSGQQIDFITEQNVYDYRSITSIGKGYDSITELHFNAFNGSAKGTEVLIQSSLEADKEDMAILSLLSRYFQNRGIKKVDWLYNANQAASRGYTYRLVEIAFIDNEQDMAIFENKKEDIAKGLVSAITGVEVKTIVPSPPSSTVGSSGTPSKSIYLVGDSLRVLPHATHYQTGQKIANWVKGRTYKILQVKNVHQSNSKRAYLLDGIKSWVLEQDVEGTTKGHSKYHHHHHH
Question: Which “ranking by cumulative relative in vitro score” value does the source give for B1 here?
Answer: The value was “overall best performing candidates”.

B2: NC8: chimeric endolysin SEQ ID NO: 20; CPP + PlySs2 CHAP + Ply1081 CW_7 + PlySs9 amidase_3 (protein)
chain: MRQIKWFQNRRMKWKKGATTVNEALNNVRAQVGSGVSVGNGECYALASWYERMISPDATVGLGAGVGWVSGAIGDTISAKNIGSSYNWQANGWTVSTSGPFKAGQIVTLGATPGNPYGHVVIVEAVDGDRLTILEQNYGGKRYPVRNYYSAASYRQQVVHYITPPGTVAQSAPNLAGAGIDQLVQETLAGKYGNGEQRKAALGSQYQAVMAVINGKATAPKKTVDQLAQEVIQGKHGNGEDRKKSLGPDYDAVQKRVTEILKGSPSGNIPKTPSDAPKSEVVNSSTEPKTEETGANGKATDTKITKGSGKHLVICGHGQGRTGYDPGAVNAKLGITEAGKVRELSKLMSKYSGQQIDFITEQNVYDYRSITSIGKGYDSITELHFNAFNGSAKGTEVLIQSSLEADKEDMAILSLLSRYFQNRGIKKVDWLYNANQAASRGYTYRLVEIAFIDNEQDMAIFENKKEDIAKGLVSAITGVEVKTIVPSPPSSTVGSSGTPSKSIYLVGDSLRVLPHATHYQTGQKIANWVKGRTYKILQVKNVHQSNSKRAYLLDGIKSWVLEQDVEGTTKGHSKYHHHHHH
Question: B2 was tested. Which “ranking by cumulative relative in vitro score” value did it give?
Answer: The value was “overall best performing candidates”.
